# Laboratory results as given in patent publication US20200399355A1 (University of California, published 2020).
# Square brackets hold non-standard residues; d marks the D form. Ends that are not written are not given here. Cit = NC(=O)NCCC[C@H](N)C(=O)O
# T1: Human CV peptide 60-75 (biotinylated citrullinated vimentin peptide) (human, also: biotinylated, position not given here)
# T1 construct: Captured through biotin on streptavidin (ELISA plate or SPR chip); also called human citrullinated vimentin
# T1 peptide: VYAT[Cit]SSAV[Cit]L[Cit]SSVP
# T2: Murine CV peptide 60-75 (biotinylated citrullinated vimentin peptide) (murine, also: biotinylated, position not given here)
# T2 construct: Captured through biotin on streptavidin in ELISA; also called murine citrullinated vimentin
# T2 peptide: AYVT[Cit]SSAV[Cit]L[Cit]SSVP
# Legend:
# [1] = molecular target: biotinylated CV peptide (Innovagen), CV60-75, on streptavidin; test: flow cytometry of transduced Tregs stained with biotinylated-CV-peptide/streptavidin-FITC tetramer (y axis, 'CAR+ cells') and EGFRt antibody (x axis)
# [2] = molecular target: biotinylated CV peptide (Innovagen), CV60-75, on streptavidin; test: flow cytometry of transduced Tregs stained with biotinylated-CV-peptide/streptavidin-FITC tetramer (y axis, 'CAR+ cells') and EGFRt antibody (x axis); number printed under the right half of the panel, taken as the lower right quadrant
# [3] = molecular target: T1, Human CV peptide 60-75 (biotinylated …); test: SPR (Biacore T100), biotinylated CV peptide on streptavidin-coated sensor chip, scFv injected from 400nM down to 12.5nM; fit table under the sensorgrams, column ka (1/Ms)
# Protocol: (§1) Assessment of the binding specificity and affinity of BVCA1 antibodies and scFv to CV peptide: The binding specificity of BVCA1 IgG and scFv were assessed by ELISA. 96-well ELISA plates were coated 0/N at 4° C. with 50 μl Streptavidin at 10m/ml. Wells were washed three times and blocked with 2000 of 1×PBS 1% BSA for 1 h at RT and washed again. 1000 of biotinylated peptides at 10 ug/ml diluted in PBS 1% BSA were added and incubated for 1 h at RT. Wells were then washed three times. 1000 of BVCA1 IgG or scFv or isotype control were added at various concentrations (serial dilution). […] Reaction was stopped with 50 11.1 of NaOH 3M after 15 to 30 min and absorbance was read in a microplate reader at 405 nm. Kinetics and affinities of BVCA1 Ig and scFv to CV peptide were analyzed by surface plasmon resonance using Biacore T100 (GE healthcare). […]
# [4] = molecular target: T1, Human CV peptide 60-75 (biotinylated …); test: SPR (Biacore T100), biotinylated CV peptide on streptavidin-coated sensor chip, scFv injected from 400nM down to 12.5nM; fit table under the sensorgrams, column KD (M)
# Protocol: as §1
# [5] = molecular target: T1, Human CV peptide 60-75 (biotinylated …); test: SPR (Biacore T100), biotinylated CV peptide immobilised on streptavidin-coated chip, scFv injected
# Protocol: as §1
# [6] = molecular target: T1, Human CV peptide 60-75 (biotinylated …); test: ELISA, biotinylated peptide on streptavidin-coated plate, scFv detected with anti-c-Myc 9E10 and anti-mouse IgG-AP, absorbance 405 nm
# Protocol: as §1
# [7] = molecular target: T2, Murine CV peptide 60-75 (biotinylated …); test: as above
# Protocol: as §1
# [8] = molecular target: T1, Human CV peptide 60-75 (biotinylated …); test: SPR (Biacore T100), biotinylated CV peptide on streptavidin-coated sensor chip, scFv injected from 400nM down to 12.5nM; fit table under the sensorgrams, column kd (1/s)
# Protocol: as §1
% of cells CVpep-SA-FITC+ EGFRt+ (upper right quadrant) [1],% of cells CVpep-SA-FITC+ EGFRt- (upper left quadrant) [1],% of cells CVpep-SA-FITC- EGFRt+ (lower right quadrant; the number stands below the panel) [2],% of cells CVpep-SA-FITC- EGFRt+ (lower right quadrant) [1],Molecule,further results
1.5%,0.1%,72.9%,,CD19.28z-CAR on human Tregs,
0.5%,,63.4%,,CD19.41BBz-CAR on human Tregs,
47.5%,0.6%,,20.7%,CV.28z-CAR (Anti-CV CAR-CD28z) on human Tregs (protein) EVKLIESGGGLVEPGRSLRLACTTSGFTFADYGLSWFRQGPGKGLEWVGFTGPKHLGETTECAPSVEDRCTISRDDSKSTVYLQMHRLQHEDTAVYFCVGPWFGDLLMWGQGTLVTVSSASSGGSTSGSGKPGSGEGSSGSARAIQMTQSPSSLSASVGDRVSITCRATQDISTSLGWYHQRPGKAPRLLIYGASKVQTGVPSRFSGNGSGTEFTLTISSLQPEDIGTYYCLQDDGFPFTVGQGTKLDIKRAAAIEVMYPPPYLDNEKSNGTIIHVKGKHLCPSPLFPGPSKPFWVLVVVGGVLACYSLLVTVAFIIFWVRSKRSRLLHSDYMNMTPRRPGPTRKHYQPYAPPRDFAAYRSRVKFSRSADAPAYQQGQNQLYNELNLGRREEYDVLDKRRGRDPEMGGKPRRKNPQEGLYNELQKDKMAEAYSEIGMKGERRRGKGHDGLYQGLSTATKDTYDALHMQALPPR,
55.4%,0.6%,,18.9%,CV.41BBz-CAR (Anti-CV CAR-41BBz) on human Tregs (protein) EVKLIESGGGLVEPGRSLRLACTTSGFTFADYGLSWFRQGPGKGLEWVGFTGPKHLGETTECAPSVEDRCTISRDDSKSTVYLQMHRLQHEDTAVYFCVGPWFGDLLMWGQGTLVTVSSASSGGSTSGSGKPGSGEGSSGSARAIQMTQSPSSLSASVGDRVSITCRATQDISTSLGWYHQRPGKAPRLLIYGASKVQTGVPSRFSGNGSGTEFTLTISSLQPEDIGTYYCLQDDGFPFTVGQGTKLDIKRAAAIEVMYPPPYLDNEKSNGTIIHVKGKHLCPSPLFPGPSKPFWVLVVVGGVLACYSLLVTVAFIIFWVKRGRKKLLYIFKQPFMRPVQTTQEEDGCSCRFPEEEEGGCELRVKFSRSADAPAYQQGQNQLYNELNLGRREEYDVLDKRRGRDPEMGGKPRRKNPQEGLYNELQKDKMAEAYSEIGMKGERRRGKGHDGLYQGLSTATKDTYDALHMQALPPR,
,,,,"BVCA1 scFv (soluble CV-specific scFv, VH-linker-VL) (scFv, Produced in E. coli periplasm; also called anti-CV scFv; single-chain variable fragment (scFv) synthesized from BVCA1 antibody; not shown: tags of the pSYN-expressed protein (detected with anti-c-Myc 9E10, purified on Ni-NTA)) scFv: EVKLIESGGGLVEPGRSLRLACTTSGFTFADYGLSWFRQGPGKGLEWVGFTGPKHLGETTECAPSVEDRCTISRDDSKSTVYLQMHRLQHEDTAVYFCVGPWFGDLLMWGQGTLVTVSSASSGGSTSGSGKPGSGEGSSGSARAIQMTQSPSSLSASVGDRVSITCRATQDISTSLGWYHQRPGKAPRLLIYGASKVQTGVPSRFSGNGSGTEFTLTISSLQPEDIGTYYCLQDDGFPFTVGQGTKLDIKRAAA",kon [3]: 19000 M⁻¹ s⁻¹; Kd [4]: 198 nM; Kd [5]: 198 nM; EC50 (read off the curve) [6]: ~2 ng/mL; EC50 (read off the curve) [7]: ~2 ng/mL; koff [8]: 0.00377 s⁻¹
